Where “and” joins values, the source holds several entries; their conditions need not be identical. Identical values can stand only once. Like-named read-outs stand apart in the source and are kept apart here.
What was measured:
[1] = tested on: affinity purified β2GPI-dependent antiphospholipid antibody; test: Competitive inhibition ELISA: recombinant β2GPI proteins compete for antibody binding to coated full length recombinant β2GPI; set-up: species or system human; conditions: for IC50: read-out: 50% (concentration to give 50% inhibition)
In short: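 Wells coated with full-length recombinant β2GPI (10 μg/ml, pH 9.5) and milk-blocked. Serially diluted recombinant β2GPI proteins were co-incubated with a fixed concentration of patient antibody for 1 h at 37 °C. Bound IgG detected with alkaline phosphatase anti-human IgG at OD550; percent inhibition is background-corrected against inhibitor-free wells.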

[2] = tested on: rabbit anti-β2GPI; test: Direct binding ELISA, nickel chelate-coated wells, rabbit antibody; conditions: O.D. at 550 nm
Protocol: Nickel Chelate-coated microwell plates (NCP 010 00 Xenopore Corp. 374 Midland Ave. Saddle Brook, N.J. USA) were coated with 50 μl of serial dilutions of the various recombinant β2GPI, in PBS, at room temperature for 2 hours. The plates were washed three times with PBS and blocked with 75 μl of a 1% gelatin (Sigma #G-2500) in PBS for one hour room temperature. […] The plates were washed three times with PBS, 50 μl of alkaline phosphatase conjugated anti-immunoglobulin (anti-human IgG, gamma chain specific, Zymed #62-8422) or anti-rabbit IgG (Zymed #62-6122) diluted appropriately in 1% gelatin was added and incubated at 37° C. for one hour. The plates were washed three times with PBS, 50 μl of alkaline phosphatase PPMP chromogenic substrate solution was added and incubated for 30 minutes at room temperature. The optical density, at 550 nm, was determined by reading the plates in a microplate autoreader (Bio-Teck Instruments, model EL311).
Seven to nine different recombinant β2GPI mutant proteins were examined to determine if they could support the direct binding of affinity purified β2GPI-dependent antiphospholipid antibody preparations in the absence of anionic phospholipid. All recombinant mutant β2GPI were assayed with affinity purified β2GPI-dependent antiphospholipid antibody preparations from 11 different patients. Each mutant recombinant β2GPI protein was tested, in a dose dependent fashion and GST-6his was included as a negative control. The recombinant mutant β2GPI proteins were bound to nickel coated microtiter plates via their 6-his tail. All recombinant mutant β2GPI proteins tested bound rabbit anti-β2GPI showing that they were assessable by antibody (FIG. 5).

[3] = tested on: affinity purified β2GPI-dependent antiphospholipid antibody; test: Direct binding ELISA, nickel chelate-coated wells charged with recombinant β2GPI proteins (no cardiolipin); set-up: species or system human; conditions: O.D. at 550 nm
In short: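 His-tagged recombinant β2GPI mutants captured on nickel chelate wells in serial dilution (2 h, room temperature), no anionic phospholipid; GST-6his as negative control. Affinity-purified patient antibodies (11 patients) or rabbit anti-β2GPI detected by alkaline phosphatase anti-IgG, OD 550 nm.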

B1: 1----: recombinant β2GPI protein with domain 1 only (SEQ ID NO:4 region), His6 tail (protein)
chain: GRTCPKPDDLPFSTVVPLKTFYEPGEEITYSCKPGYVSRGGMRKFICPLTGLWPINTLKCTPRVGHHHHHH
- Max (maximum inhibition observed at concentrations tested) ([1]; Ab 6203): 60%
- Max (maximum inhibition observed at concentrations tested) ([1]; Ab 6203, listed as 1 - - - -): 20%
- IC50 ([1]; Ab 6203): > 10 µM
- Max (maximum inhibition observed at concentrations tested) ([1]; Ab 6501): 70%
- Max (maximum inhibition observed at concentrations tested) ([1]; Ab 6501, listed as 1 - - - -): 30%
- IC50 ([1]; Ab 6501, listed as 1 - - - -): > 10 µM
- Max (maximum inhibition observed at concentrations tested) ([1]; Ab 6626): 85%
- Max (maximum inhibition observed at concentrations tested) ([1]; Ab 6626, listed as 1 - - - -): 50%
- IC50 ([1]; Ab 6626, listed as 1 - - - -): > 10 µM
- IC50 ([1]; Ab 6626): 8 µM and > 10 µM
- Max (maximum inhibition observed at concentrations tested) ([1]; Ab 6632): 90%
- Max (maximum inhibition observed at concentrations tested) ([1]; Ab 6632, listed as 1 - - - -): 70%
- IC50 ([1]; Ab 6632, listed as 1 - - - -): 3 µM
- IC50 ([1]; Ab 6632): 8 µM
- Max (maximum inhibition observed at concentrations tested) ([1]; Ab 6641): 98%
- IC50 ([1]; Ab 6641): > 10 µM
- Max (maximum inhibition observed at concentrations tested) ([1]; Ab 6644): 90%
- Max (maximum inhibition observed at concentrations tested) ([1]; Ab 6644, listed as 1 - - - -): 45%
- IC50 ([1]; Ab 6644, listed as 1 - - - -): > 10 µM
- IC50 ([1]; Ab 6644): 8 µM and > 10 µM
- Max (maximum inhibition observed at concentrations tested) ([1]; Ab 6701): 80%
- IC50 ([1]; Ab 6701): 4 µM
- Max (maximum inhibition observed at concentrations tested) ([1]; Ab 7008): 70%
- Max (maximum inhibition observed at concentrations tested) ([1]; Ab 7008, listed as 1 - - - -): 40%
- IC50 ([1]; Ab 7008): > 10 µM
- Max (maximum inhibition observed at concentrations tested) ([1]; Ab 7015): 90%
- Max (maximum inhibition observed at concentrations tested) ([1]; Ab 7015, listed as 1 - - - -): 30%
- IC50 ([1]; Ab 7015, listed as 1 - - - -): > 10 µM
- IC50 ([1]; Ab 7015): 8 µM and > 10 µM
- Max (maximum inhibition observed at concentrations tested) ([1]; Ab 7101): 70%
- Max (maximum inhibition observed at concentrations tested) ([1]; Ab 7101, listed as 1 - - - -): 20%
- IC50 ([1]; Ab 7101, listed as 1 - - - -): > 10 µM
- IC50 ([1]; Ab 7101): 8 µM and > 10 µM
- Max (maximum inhibition observed at concentrations tested) ([1]; Ab 7104): 90%
- IC50 ([1]; Ab 7104): 0.8 µM
- Maximum O.D. [2]: 1.9737
- Maximum O.D. ([3]; Ab 6203): 1.029
- Maximum O.D. ([3]; Ab 6501): 0.911
- Maximum O.D. ([3]; Ab 6626): 0.560
- Maximum O.D. ([3]; Ab 6632): 0.351
- Maximum O.D. ([3]; Ab 6641): 0.252
- Maximum O.D. ([3]; Ab 6644): 0.493
- Maximum O.D. ([3]; Ab 6652): 0.262
- Maximum O.D. ([3]; Ab 6701): 0.388
- Maximum O.D. ([3]; Ab 7008): 0.195
- Maximum O.D. ([3]; Ab 7015): 1.102
- Maximum O.D. ([3]; Ab 7101): 0.804

B2: recombinant β2GPI domain 5 with GlyHis6 (----5) (protein)
chain: GRASCKLPVKKATVVYQGERVKIQEKFKNGMLHGDKVSFFCKNKEKKCSYTEDAQCIDGTIEVPKCFKEHSSLAFWKTDASDVKPCGHHHHHH
- Max (maximum inhibition observed at concentrations tested) ([1]; Ab 6203): 5%
- IC50 ([1]; Ab 6203): > 47 µM
- Max (maximum inhibition observed at concentrations tested) ([1]; Ab 6501): 10%
- IC50 ([1]; Ab 6501): > 47 µM
- Max (maximum inhibition observed at concentrations tested) ([1]; Ab 6509): 10%
- IC50 ([1]; Ab 6509): > 47 µM
- Max (maximum inhibition observed at concentrations tested) ([1]; Ab 6626): 10%
- IC50 ([1]; Ab 6626): > 47 µM
- Max (maximum inhibition observed at concentrations tested) ([1]; Ab 6632): 10%
- IC50 ([1]; Ab 6632): > 47 µM
- Max (maximum inhibition observed at concentrations tested) ([1]; Ab 6641): 10%
- IC50 ([1]; Ab 6641): > 47 µM
- Max (maximum inhibition observed at concentrations tested) ([1]; Ab 6644): 10%
- IC50 ([1]; Ab 6644): > 47 µM
- Max (maximum inhibition observed at concentrations tested) ([1]; Ab 6652): 15%
- IC50 ([1]; Ab 6652): > 47 µM
- Max (maximum inhibition observed at concentrations tested) ([1]; Ab 6701): 10%
- IC50 ([1]; Ab 6701): > 47 µM
- Max (maximum inhibition observed at concentrations tested) ([1]; Ab 7008): 20%
- IC50 ([1]; Ab 7008): > 47 µM
- Max (maximum inhibition observed at concentrations tested) ([1]; Ab 7015): 10%
- IC50 ([1]; Ab 7015): > 47 µM
- Max (maximum inhibition observed at concentrations tested) ([1]; Ab 7101): 5%
- IC50 ([1]; Ab 7101): > 47 µM
- Max (maximum inhibition observed at concentrations tested) ([1]; Ab 7104): 0%
- IC50 ([1]; Ab 7104): > 47 µM
- Maximum O.D. [2]: 1.663
- Maximum O.D. ([3]; Ab 6203): 0.044
- Maximum O.D. ([3]; Ab 6501): 0.004
- Maximum O.D. ([3]; Ab 6626): 0.028
- Maximum O.D. ([3]; Ab 6632): 0.013
- Maximum O.D. ([3]; Ab 6641): 0.018
- Maximum O.D. ([3]; Ab 6644): 0.017
- Maximum O.D. ([3]; Ab 6652): 0.012
- Maximum O.D. ([3]; Ab 6701): 0.000
- Maximum O.D. ([3]; Ab 7008): 0.007
- Maximum O.D. ([3]; Ab 7015): 0.078
- Maximum O.D. ([3]; Ab 7101): 0.078

B3: 12345: recombinant full length human β2GPI (domains 1-5) with C-terminal GlyHis6, baculovirus expressed (protein)
chain: GRTCPKPDDLPFSTVVPLKTFYEPGEEITYSCKPGYVSRGGMRKFICPLTGLWPINTLKCTPRVCPFAGILENGAVRYTTFEYPNTISFSCNTGFYLNGADSAKCTEEGKWSPELPVCAPIICPPPSIPTFATLRVYKPSAGNNSLYRDTAVFECLPQHAMFGNDTITCTTHGNWTKLPECREVKCPFPSRPDNGFVNYPAKPTLYYKDKATFGCHDGYSLDGPEEIECTKLGNWSAMPSCKASCKLPVKKATVVYQGERVKIQEKFKNGMLHGDKVSFFCKNKEKKCSYTEDAQCIDGTIEVPKCFKEHSSLAFWKTDASDVKPCGHHHHHH
- Max (maximum inhibition observed at concentrations tested) ([1]; Ab 6203): 75%
- IC50 ([1]; Ab 6203): 0.8 µM
- Max (maximum inhibition observed at concentrations tested) ([1]; Ab 6501): 80%
- IC50 ([1]; Ab 6501): 0.2 µM
- Max (maximum inhibition observed at concentrations tested) ([1]; Ab 6509): 70%
- IC50 ([1]; Ab 6509): 0.1 µM
- Max (maximum inhibition observed at concentrations tested) ([1]; Ab 6626): 80%
- IC50 ([1]; Ab 6626): 0.3 µM
- Max (maximum inhibition observed at concentrations tested) ([1]; Ab 6632): 90%
- IC50 ([1]; Ab 6632): 0.8 µM
- Max (maximum inhibition observed at concentrations tested) ([1]; Ab 6641): 96%
- IC50 ([1]; Ab 6641): 0.1 µM
- Max (maximum inhibition observed at concentrations tested) ([1]; Ab 6644): 90%
- IC50 ([1]; Ab 6644): 0.2 µM
- Max (maximum inhibition observed at concentrations tested) ([1]; Ab 6652): 95%
- IC50 ([1]; Ab 6652): 0.8 µM
- Max (maximum inhibition observed at concentrations tested) ([1]; Ab 6701): 100%
- IC50 ([1]; Ab 6701): 0.1 µM
- Max (maximum inhibition observed at concentrations tested) ([1]; Ab 7008): 90%
- IC50 ([1]; Ab 7008): 0.2 µM
- Max (maximum inhibition observed at concentrations tested) ([1]; Ab 7015): 90%
- IC50 ([1]; Ab 7015): 0.2 µM
- Max (maximum inhibition observed at concentrations tested) ([1]; Ab 7101): 80%
- IC50 ([1]; Ab 7101): 0.8 µM
- Max (maximum inhibition observed at concentrations tested) ([1]; Ab 7104): 90%
- IC50 ([1]; Ab 7104): 0.8 µM
- Maximum O.D. [2]: 2.065
- Maximum O.D. ([3]; Ab 6203): 1.270
- Maximum O.D. ([3]; Ab 6501): 1.772
- Maximum O.D. ([3]; Ab 6626): 1.527
- Maximum O.D. ([3]; Ab 6632): 1.419
- Maximum O.D. ([3]; Ab 6641): 2.555
- Maximum O.D. ([3]; Ab 6644): 1.848
- Maximum O.D. ([3]; Ab 6652): 0.640
- Maximum O.D. ([3]; Ab 6701): 0.948
- Maximum O.D. ([3]; Ab 7008): 1.380
- Maximum O.D. ([3]; Ab 7015): 1.864
- Maximum O.D. ([3]; Ab 7101): 1.257
